The values that follow come from paper PMC3536657 (PLoS Pathogens, 2013).

One test deals with T1, QH0692 gp120 (HIV-1 clade B, isolate QH0692, UniProt Q5G5V7, strain).
T1 construct: also called QH0692 Env; recombinant QH0692 Env; source: bought: Immune Technologies
Nature of the test: BLI. As to conditions: both partners purified.

Test [1] has as its target 426c gp140 (HIV-1 clade C, 426c, UniProt M4Q8P8, strain). Nature of the test: BLI; antibody-capture: IgG (15 µg/mL in PBS) on anti-human IgG Fc capture biosensors; Env in solution at one concentration (1.2 µM in the legend, 1.02 µM in the methods) in 1x kinetics buffer (PBS, 0.01% BSA, 0.02% Tween 20, 0.005% NaN3). As to conditions: both partners purified. In general terms: Biolayer interferometry detects binding as a change in optical thickness at a sensor tip.

Test [2] addresses T2, SF162 gp120 (HIV-1 clade B, isolate SF162, UniProt P19550). The experiment in a line: cell-based or functional assay.
The next test concerns the target T3, QH0692 gp140 trimer (HIV-1 clade B, isolate QH0692, UniProt Q5G5V7, strain).
T3 construct: also called trimeric QH0692 gp140
The experiment in a line: ELISA. As to conditions: both partners purified. On the technique in general: In an ELISA, binding on a coated surface is turned into a signal by an enzyme label.

For another test, the target named is T4, SF162 gp140 trimer (HIV-1 clade B, isolate SF162, UniProt P19550, strain).
T4 construct: also called trimeric SF162 gp140
The experiment in a line: ELISA. As to conditions: both partners purified.

The next test concerns the target T5, HXB2 gp120 (HIV-1 clade B, isolate HXB2, UniProt P04578).
T5 construct: also called HXBc2; HXB2 Env; source: bought: Immune Technologies
Nature of the test: ELISA. As to conditions: both partners purified.

Test [3] addresses T2, SF162 gp120. The experiment in a line: ELISA. As to conditions: both partners purified.
In the next test the target is Q461e2 gp140 (HIV-1 clade A, Q461e2, UniProt Q8JDJ9, strain). The experiment in a line: BLI; antibody-capture: IgG (15 µg/mL in PBS) on anti-human IgG Fc capture biosensors; Env in solution at one concentration (1.2 µM in the legend, 1.02 µM in the methods) in 1x kinetics buffer (PBS, 0.01% BSA, 0.02% Tween 20, 0.005% NaN3). As to conditions: both partners purified.
The target of the next test is Q168a2 gp140 (HIV-1 clade A, Q168a2, UniProt Q8JDN0, strain). The test is described as above. As to conditions: both partners purified.
The target of test [4] is 426c gp140 (HIV-1 clade C, 426c, UniProt M4Q8P8, strain). The description is as above. As to conditions: both partners purified. This is another data set of the same source.

Positions count from the first letter of the chain named. Names and notes keep the numbering of the source.

B1: NIH45-46 chimeric IgG, germline heavy chain with mature light chain (antibody, V domains shown)
VH: not shown
VL: EIVLTQSPATLSLSPGETAIISCRTSQSGSLAWYQQRPGQAPRLVIYSGSTRAAGIPDRFSGSRWGADYNLSISNLESGDFGVYYCQQYEFFGQGTKVQVD
Take B1: the binding result in the test with QH0692 gp120 is “no binding (tested: 100 nM; less than 0.2 nM shift)”.

B2: mature IgG b12 (antibody, V domains shown)
VH: QVQLVQSGAEVKKPGASVKVSCQASGYRFSNFVIHWVRQAPGQRFEWMGWINPYNGNKEFSAKFQDRVTFTADTSANTAYMELRSLRSADTAVYYCARVGPYSWDDSPQDNYYMDVWGKGTTVIVSS
VL: EIVLTQSPGTLSLSPGERATFSCRSSHSIRSRRVAWYQHKPGQAPRLVIHGVSNRASGISDRFSGSGSGTDFTLTITRVEPEDFALYYCQVYGASSYTFGQGTKLERK
notes: also called mature b12; mature b12 IgG
B2: the binding result with 426c gp140 [1], in the test with QH0692 gp140 trimer and in the test with SF162 gp140 trimer was “binds” in each case. For the same molecule, the “neutralisation of SF162 virions (luciferase reporter cells), IC50” value with SF162 gp120 [2] was 0.01 µg/mL.

B3: b12 IgG, germline heavy chain with G100W, paired with the mature light chain (antibody, V domains shown)
VH: QVQLVQSGAEVKKPGASVKVSCKASGYTFTSYAMHWVRQAPGQRLEWMGWINAGNGNTKYSQKFQGRVTITRDTSASTAYMELSSLRSEDTAVYYCARVGPYCWGDSPQDNYYMDVWGKGTTVTVSS
VL: B2 VL
For B3, the binding result with HXB2 gp120 and with SF162 gp120 [3] was “no binding (tested: 30 µg/mL)” throughout.

B4: b12 IgG, germline heavy chain with S31N/A52P/G53Y/G100W, paired with the mature light chain (antibody, V domains shown)
VH: B3 VH with S31N, A53P, G54Y
VL: B2 VL
For the molecule B4, the binding result is on record as “binds” with HXB2 gp120 and “no binding (tested: 30 µg/mL)” in the test with SF162 gp120 [3].

B5: germline IgG b12 (antibody, V domains shown)
VH: B3 VH with W104G
VL: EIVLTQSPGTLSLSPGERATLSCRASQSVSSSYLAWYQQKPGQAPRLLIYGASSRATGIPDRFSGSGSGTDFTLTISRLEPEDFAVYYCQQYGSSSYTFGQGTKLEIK
notes: also called germline b12; soluble germline version of IgG b12
As to B5, the binding result is listed as “no binding (tested: 1.2 µM)” with Q461e2 gp140, “no binding (tested: 1.2 µM)” with Q168a2 gp140, “no binding (tested: 1.2 µM)” with 426c gp140 [4] and “no binding (tested: 30 µg/mL)” with SF162 gp140 trimer.

B6: 3BNC60 chimeric IgG, germline heavy chain with mature light chain (antibody, V domains shown)
VH: not shown
VL: DIQMTQSPSSLSARVGDTVTITCQANGYLNWYQQRRGKAPKLLIYDGSKLERGVPARFSGRRWGQEYNLTINNLQPEDVATYFCQVYEFIVPGTRLDLK
notes: also called gHC/mLC (3BNC60)
Take B6: the binding result with QH0692 gp120 was “no binding (tested: 100 nM; less than 0.2 nM shift)”.
